# Data from US20190106493A1 (MABQUEST, published 2019).
# B1: 137F2 (antibody, V domains shown)
# VH: QVQLQQPGAELVRPGTSVKMSCKAAGYTFTNYWIGWIKQRPGHGLEWIGDIYPGGGYTNYNEKFKGKATLTADTSSSTAYMQVSSLTSEDTGIYYCARGYDFVLDRWGQGTSVTVSS
# VL: DIVMSQSPSSLAVSTGEKVTMTCKSSQSLFNSETQKNYLAWYQQKPGQPPKLLIFWASTRESGVPDRFLGSGSGTDFTLTISSVQAEDLAVYYCKQSYTLRTFGGGTKLEIK
# B2: 135C12 (antibody, V domains shown)
# VH: EVQLHQSGPELLKPGASVRMSCKASGYTFTNFYIHWVKQSHGKSIEWIGSIYPNYGDTAYNQKFKDKATLTVDKSSSTAYMALRSLTSEDSAVYYCARGYSYAMDYWGQGTSVTVSS
# VL: NIVMTQSPKSMSMSVGERVTLTCKASENVVTYVSWYQQKPEQSPKLLIYGASNRYTGVPDRFTGSGSATDFTLTISSVQAEDLADYHCGQGYSYPYTFGGGTKLEIK
# What was measured:
# PD-1 Fc fusion protein = target: T1, PD-1 Fc fusion protein (human, UniProt Q15116 25-167, limits assumed); assay: FIG. 5A; Luminex, PD-1 Fc beads, antibody titrated, competitor: fixed biotinylated PD-L1
# T1 construct: construct limits, linker and Fc not described; the bead protein is printed only as 'PD-1 Fc fusion protein'; also called human PD-1 Fc fusion protein; PD-1 Fc fusion protein coated beads
# [1] = target: endogenous cell surface PD-1 on activated CD4 T cells (human, UniProt Q15116 25-288); assay: cell-based or functional assay
# Chain of endogenous cell surface PD-1 on activated CD4 T cells (Q15116 25-288): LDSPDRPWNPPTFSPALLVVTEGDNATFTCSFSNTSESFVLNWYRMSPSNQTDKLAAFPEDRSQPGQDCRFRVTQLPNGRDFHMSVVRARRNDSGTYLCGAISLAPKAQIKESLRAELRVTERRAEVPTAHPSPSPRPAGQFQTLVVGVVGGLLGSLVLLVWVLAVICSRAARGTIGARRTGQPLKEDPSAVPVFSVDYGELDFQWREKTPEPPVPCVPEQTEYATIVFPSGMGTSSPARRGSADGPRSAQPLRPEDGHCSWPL
# T1 sequence (Q15116 25-167 limits assumed): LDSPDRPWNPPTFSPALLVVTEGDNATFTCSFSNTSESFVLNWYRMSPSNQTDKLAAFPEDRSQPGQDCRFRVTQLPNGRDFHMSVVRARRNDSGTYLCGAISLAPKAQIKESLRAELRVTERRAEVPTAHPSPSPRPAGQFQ
Binder,IC50 (PD-1 Fc fusion protein) [nM],EFRA % relative to peptide stimulation alone [1] [%]
B1,~0.2,250
B2,–,195
